Legend:
IL-18BP (human) = IL-18BP (human) (UniProt O95998); test: cell-based or functional assay
IL-18 (human) = IL-18 (human) (UniProt Q14116); test: cell-based or functional assay
Sequence of IL-18 (human) (Q14116 37-193 limits assumed): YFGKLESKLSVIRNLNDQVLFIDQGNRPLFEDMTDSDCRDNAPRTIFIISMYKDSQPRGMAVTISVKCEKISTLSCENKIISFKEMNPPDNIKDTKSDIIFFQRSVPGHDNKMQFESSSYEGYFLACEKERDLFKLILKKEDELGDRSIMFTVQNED

Sequence of IL-18BP (human) (O95998 31-194): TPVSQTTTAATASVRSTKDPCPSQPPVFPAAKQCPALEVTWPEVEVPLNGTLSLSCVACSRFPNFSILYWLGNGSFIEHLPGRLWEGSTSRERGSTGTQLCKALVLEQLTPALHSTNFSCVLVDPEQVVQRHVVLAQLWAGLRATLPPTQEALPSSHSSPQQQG

Substance	activity of IL-18 (IFNγ release by NKO cells, %) at 3.12 ng/ml of IL-18BP with mature IL-1F7b 250 ng/ml (IL-18BP (human))	activity of IL-18 (IFNγ release by NKO cells, %) at 6.25 ng/ml of IL-18BP with mature IL-1F7b 250 ng/ml (IL-18BP (human))	further decrease in activity of IL-18 at 3.12 ng/ml of IL-18BP with mature IL-1F7b (IL-18BP (human))	further decrease in activity of IL-18 at 6.25 ng/ml of IL-18BP with mature IL-1F7b (IL-18BP (human))	activity of IL-18 (IFNγ release by NKO cells, % of IL-18 25 ng/ml plus IL-12 without IL-18BP or IL-1F7b) at 3.12 ng/ml of IL-18BP, without IL-1F7b (IL-18 (human))	activity of IL-18 (IFNγ release by NKO cells, % of IL-18 25 ng/ml plus IL-12 without IL-18BP or IL-1F7b) at 6.25 ng/ml of IL-18BP, without IL-1F7b (IL-18 (human))
mature IL-1F7b (N-terminus E21) (from UniProt Q9NZH6 21-218) (ligand)	40%	55%	19%	21%	–	–
IL-18BP (from UniProt O95998 31-194) (receptor)	–	–	–	–	59%	76%
